Experimental data as given in publication PMC10699557, “A recombinant approach for stapled peptide discovery yields inhibitors of the RAD51 recombinase†” (Chemical Science, 2023).
Bridge positions count the residues as written; N and C are the ends. Ends that are not written are not given here. DVT = divinyltriazine staple linking the two cysteines

Target: HumRadA22
Assay: fluorescence polarisation; competition: displacement of a fluorescently-labelled BRC4 repeat from HumRadA22; KD calculated from IC50; single titrations with three technical replicates at each point; mock (linear) samples with 500 uM TCEP
Settings: both partners purified

VNSSAFSGFCTASGKKLNVSCEALQKAVKLFSDIENIS (linker 10-21 via DVT (inferred); also: His8 tag in name not shown in chain) [GB1-SP7-His8, stapled with DVT] showed a Kd of 149 nM.
